Measurements taken from patent US20150216948A1, “CYTOCHROME P450 SUICIDE GENE SYSTEM” (priority 2012, published 2015).
Like-named read-outs stand apart in the source and are kept apart here.

Columns and labels:
[1] = tested on: HepG2 cells; assay: 4-IPO toxicity assay: survival of transduced HepG2 cells by flow cytometry (propidium iodine); assay type: cell-based, human; details: for 4-IPO processing activity / cell killing (in words): transduced cells challenged with 4-IPO
From the text: Initially, the serine at position 427 in the human CYP4B1 was mutated back to proline (h-P427), which is present at this position in all CYP4B1 proteins. Additionally a proline to serine exchange was created in the native rabbit CYP4B1 enzyme at the corresponding position 422 (r-P422). To immediately exclude the possibility that the different activities between human and the rabbit protein isoforms are simply due to differences in mRNA stability, the human CYP4B1 cDNA (SEQ ID NO.: 2) was optimized for human-codon usage (SEQ ID NO.: 3) by de novo synthesis with silent mutagenesis of the cDNA, thus removing internal TATA-boxes, instability motives, RNA secondary structures and (cryptic) splice donor/acceptor sites and ensuring an average GC content of around 60%. All cDNAs were cloned into the same lentiviral (LV) HIV1-based expression vector and LV supernatants produced by plasmid transfection in HEK293T cells. Subsequently, the two rabbit and the four human cDNAs were stably expressed in the human liver cell line HepG2. Stably expressing transduced cells were challenged after five days with increasing concentrations of 4-IPO for 24, 48 and 72 hours and then the survival of cells analyzed by flow cytometry using propidium iodine for live/dead cell discrimination.
(§1) Next, it was analyzed whether the different activities of the human and the rabbit proteins in processing 4-IPO could be explained by differences in protein half-life. However, as no antibody was available that can detect both CYP4B1 proteins, EGFP fusion constructs were generated. With these constructs, EGFP antibodies can be utilized to visualize and compare the expression levels and the half-lives of the fusion proteins in cells by western blots. EGFP expression can also be used for flow cytometry assessment of the expression levels due to the fluorescent properties of the fusion proteins. 5′- and 3′-fusions of EGFP with the native rabbit P422 and the human P427 CYP4B1 proteins were cloned in LV vectors with an IRES-NEO (NEO=neomycin phosphotransferase cDNA, npt II) and stably expressed in HepG2 cells (FIG. 3 B). For comparison, the corresponding IRES-EGFP constructs were also included, as these vectors had already been used in previous experiments and activity measurements thus already existed. Transduced cells were incubated for 24, 48 and 72 hours with increasing concentration of 4-IPO. Cultures were then harvested, cells stained with propidium iodine and subsequently analyzed for survival of transduced EGFP+ cells by flow cytometry (FIG. 3 A).

[2] = relative to rabbit CYP4B1, cited from earlier work
[3] = tested on: HepG2 cells; assay: Half-life of CYP4B1/EGFP fusion proteins after cycloheximide (western blot, FACS); assay type: cell-based, human; details: EGFP fusion
Experimental: FIGS. 3 C and D show CYP4B1 stability as analysed by western blotting and by flow cytometry. The studies on protein expression and stability were performed with the rabbit and human CYP4B1/EGFP fusion construction in the lentiviral vector with the additional IRES-neomycin cassette. Half-life analysis was performed by adding 50 μg/ml cycloheximide to the transduced and G418-selected HepG2 cells. Samples were collected at the indicated time points.
as §1
After standard inhibition of de novo protein synthesis by cycloheximide, the half-life of the CYP4B1 proteins in stably transduced and G418-resistant HepG2 cells was assessed by determining the protein expression levels over time either in western blotting or in FACS analysis as EGFP fluorescence. […] For the human native protein (h-S427), the mean fluorescence indicates a short average half-life of only 6 hours.

[4] = tested on: primary human T-cells; assay: 4-IPO toxicity in transduced primary T-cells; assay type: cell-based; details: 24 h and 72 h exposure to increasing doses of 4-IPO, EGFP fusions, FIG. 7 B
From the text: Compared to the HepG2 liver cells, primary T-cells might not provide an optimal environment for the function of P450 cytochromes (although the necessary reductase is ubiquitously expressed) and the infection of primary T-cells is considerably more complex.
The T cells were isolated by Ficoll and stimulated with CD3, CD28 and IL2 for 3 days before they were infected with lentiviral vectors using fibronectin. For optimal toxicity in T cells, the suicide genes were not expressed as EGFP fusions proteins but a IRES-EGFP-WPRO vector construct was used. […] However, after 24 hours over 70% of the transgenic T cells were eliminated by CYP4B1 P427 mut12. […] The determination of the virus titer was based on the titration of the reference cell line HT1080.

B1: h-S427: native human CYP4B1 protein with serine at position 427 (protein, listed as Homo sapiens)
chain: MVPSFLSLSFSSLGLWASGLILVLGFLKLIHLLLRRQTLAKAMDKFPGPPTHWLFGHALEIQETGSLDKVVSWAHQFPYAHPLWFGQFIGFLNIYEPDYAKAVYSRGDPKAPDVYDFFLQWIGRGLLVLEGPKWLQHRKLLTPGFHYDVLKPYVAVFTESTRIMLDKWEEKAREGKSFDIFCDVGHMALNTLMKCTFGRGDTGLGHRDSSYYLAVSDLTLLMQQRLVSFQYHNDFIYWLTPHGRRFLRACQVAHDHTDQVIRERKAALQDEKVRKKIQNRRHLDFLDILLGARDEDDIKLSDADLRAEVDTFMFEGHDTTTSGISWFLYCMALYPEHQHRCREEVREILGDQDFFQWDDLGKMTYLTMCIKESFRLYPPVPQVYRQLSKPVTFVDGRSLPAGSLISMHIYALHRNSAVWPDPEVFDSLRFSTENASKRHPFAFMPFSAGPRNCIGQQFAMSEMKVVTAMCLLRFEFSLDPSRLPIKMPQLVLRSKNGFHLHLKPLGPGSGK
- 4-IPO processing activity / cell killing (in words) ([1]; listed as native CYP4B1 protein): comparable to the survival rate of non-transduced control cells
- 4-IPO processing activity / cell killing (in words) ([1]; listed as native human CYP4B1 S427 protein): cannot process 4-IPO at all
- activity to activate 4-IPO compared to the rabbit CYP4B1 [2]: > 1%
- activity to activate 4-IPO compared to the rabbit CYP4B1 ([2]; listed as human isoform): ≤ 1%
- protein half-life ([3]; 50 μg/ml cycloheximide, G418-selected HepG2 cells): 6 h

B2: r-P422: wildtype rabbit CYP4B1 enzyme (protein, listed as Oryctolagus cuniculus)
chain: MLGFLSRLGLWASGLILILGFLKLLRLLLRRQRLARAMDSFPGPPTHWLFGHALEIQKTGSLDKVVTWTQQFPYAHPLWVGQFIGFLNIYEPDYAKAVYSRGDPKAPDVYDFFLQWIGKGLLVLDGPKWFQHRKLLTPGFHYDVLKPYVAIFADSTRIMLEKWEKKACEGKSFDIFSDVGHMALDTLMKCTFGKGDSGLNHRDSSYYVAVSELTLLMQQRIDSFQYHNDFIYWLTPHGRRFLRACRAAHDHTDRVIRQRKAALQDEKEREKIQNRRHLDFLDILLDVRGESGVQLSDTDLRAEVDTFMFEGHDTTTSGISWFLYCMALYPEHQQRCREEVREILGDQDSFQWEDLAKMTYLTMCMKECFRLYPPVPQVYRQLSKPVSFVDGRSLPAGSLISLHIYALHRNSDVWPDPEVFDPLRFSPENSSGRHPYAFIPFSAGPRNCIGQQFAMNEMKVVTALCLLRFEFSVDPLRLPIKLPQLVLRSKNGIHLYLKPLGPK
- transduced HepG2 cells eliminated / dead ([1]; after 24 hours of 4-IPO treatment, FIG. 2): over 95%
- killing of primary T-cells with 4-IPO (in words) [4]: more active than the native P427 and the human codon-optimized P427 CYP4B1 enzymes
- protein stability (in words) ([3]; cycloheximide, HepG2 cells): strongest protein stability
